{
  "source": "paper PMC4397020",
  "target": "fibronectin (from human plasma) (human) (UniProt P02751)",
  "sequence (P02751 other isoform, or with tags, fused parts or gaps, chain 1 of 2)": "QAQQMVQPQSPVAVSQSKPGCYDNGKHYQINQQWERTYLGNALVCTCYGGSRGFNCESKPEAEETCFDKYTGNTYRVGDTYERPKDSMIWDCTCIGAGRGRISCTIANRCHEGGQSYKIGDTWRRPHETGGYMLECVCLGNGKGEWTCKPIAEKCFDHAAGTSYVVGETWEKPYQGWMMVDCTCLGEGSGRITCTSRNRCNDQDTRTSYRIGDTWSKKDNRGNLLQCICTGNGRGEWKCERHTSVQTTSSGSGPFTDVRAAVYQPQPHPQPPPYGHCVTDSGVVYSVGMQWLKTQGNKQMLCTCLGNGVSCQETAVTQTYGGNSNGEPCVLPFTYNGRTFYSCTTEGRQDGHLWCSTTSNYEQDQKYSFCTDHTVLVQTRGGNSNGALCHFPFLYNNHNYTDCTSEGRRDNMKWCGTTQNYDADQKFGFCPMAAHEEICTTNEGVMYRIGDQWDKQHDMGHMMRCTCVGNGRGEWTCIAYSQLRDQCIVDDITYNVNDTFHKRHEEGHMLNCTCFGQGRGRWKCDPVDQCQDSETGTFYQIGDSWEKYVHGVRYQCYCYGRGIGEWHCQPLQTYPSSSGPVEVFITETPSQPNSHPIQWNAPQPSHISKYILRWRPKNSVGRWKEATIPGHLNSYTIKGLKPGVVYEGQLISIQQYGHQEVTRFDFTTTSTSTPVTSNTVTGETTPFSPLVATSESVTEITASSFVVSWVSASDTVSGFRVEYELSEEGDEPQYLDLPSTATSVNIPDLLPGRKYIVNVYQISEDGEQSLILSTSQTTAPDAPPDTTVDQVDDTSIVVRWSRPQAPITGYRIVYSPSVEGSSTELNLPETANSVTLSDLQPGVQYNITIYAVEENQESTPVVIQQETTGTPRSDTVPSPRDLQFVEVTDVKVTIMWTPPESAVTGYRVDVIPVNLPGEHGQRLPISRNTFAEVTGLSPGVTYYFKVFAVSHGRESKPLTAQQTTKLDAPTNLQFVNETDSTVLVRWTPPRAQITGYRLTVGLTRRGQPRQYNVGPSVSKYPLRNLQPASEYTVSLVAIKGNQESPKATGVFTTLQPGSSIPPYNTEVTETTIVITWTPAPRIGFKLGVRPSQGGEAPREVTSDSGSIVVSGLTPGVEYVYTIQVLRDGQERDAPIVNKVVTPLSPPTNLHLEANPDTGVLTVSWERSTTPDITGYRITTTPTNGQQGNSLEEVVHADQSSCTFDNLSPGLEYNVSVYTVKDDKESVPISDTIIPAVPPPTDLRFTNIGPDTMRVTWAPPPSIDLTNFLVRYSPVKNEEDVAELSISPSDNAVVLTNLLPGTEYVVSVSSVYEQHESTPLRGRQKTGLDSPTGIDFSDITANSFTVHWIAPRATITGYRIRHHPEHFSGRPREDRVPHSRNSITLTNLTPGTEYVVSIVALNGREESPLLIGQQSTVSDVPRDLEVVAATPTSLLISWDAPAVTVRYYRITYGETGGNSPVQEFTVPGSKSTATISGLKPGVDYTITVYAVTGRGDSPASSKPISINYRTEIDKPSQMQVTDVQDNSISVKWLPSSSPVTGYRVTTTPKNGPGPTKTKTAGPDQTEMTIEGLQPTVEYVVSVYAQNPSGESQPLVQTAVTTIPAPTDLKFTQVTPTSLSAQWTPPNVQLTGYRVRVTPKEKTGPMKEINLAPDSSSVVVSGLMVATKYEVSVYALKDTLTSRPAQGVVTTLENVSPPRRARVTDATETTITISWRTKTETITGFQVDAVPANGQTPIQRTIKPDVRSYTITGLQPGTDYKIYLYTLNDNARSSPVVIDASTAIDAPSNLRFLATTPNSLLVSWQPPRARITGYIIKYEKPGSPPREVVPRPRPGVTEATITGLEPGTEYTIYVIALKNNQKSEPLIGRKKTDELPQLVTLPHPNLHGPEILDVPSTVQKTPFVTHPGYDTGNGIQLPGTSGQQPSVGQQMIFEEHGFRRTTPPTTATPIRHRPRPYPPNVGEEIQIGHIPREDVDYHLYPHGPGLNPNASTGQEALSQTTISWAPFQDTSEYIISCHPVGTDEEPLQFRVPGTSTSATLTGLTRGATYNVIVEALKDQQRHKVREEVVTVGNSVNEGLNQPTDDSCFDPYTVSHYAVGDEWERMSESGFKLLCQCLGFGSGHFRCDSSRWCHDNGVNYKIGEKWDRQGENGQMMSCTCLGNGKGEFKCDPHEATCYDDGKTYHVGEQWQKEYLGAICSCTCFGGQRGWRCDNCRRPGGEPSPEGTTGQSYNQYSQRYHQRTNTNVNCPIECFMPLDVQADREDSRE",
  "sequence (P02751 other isoform, or with tags, fused parts or gaps, chain 2 of 2)": "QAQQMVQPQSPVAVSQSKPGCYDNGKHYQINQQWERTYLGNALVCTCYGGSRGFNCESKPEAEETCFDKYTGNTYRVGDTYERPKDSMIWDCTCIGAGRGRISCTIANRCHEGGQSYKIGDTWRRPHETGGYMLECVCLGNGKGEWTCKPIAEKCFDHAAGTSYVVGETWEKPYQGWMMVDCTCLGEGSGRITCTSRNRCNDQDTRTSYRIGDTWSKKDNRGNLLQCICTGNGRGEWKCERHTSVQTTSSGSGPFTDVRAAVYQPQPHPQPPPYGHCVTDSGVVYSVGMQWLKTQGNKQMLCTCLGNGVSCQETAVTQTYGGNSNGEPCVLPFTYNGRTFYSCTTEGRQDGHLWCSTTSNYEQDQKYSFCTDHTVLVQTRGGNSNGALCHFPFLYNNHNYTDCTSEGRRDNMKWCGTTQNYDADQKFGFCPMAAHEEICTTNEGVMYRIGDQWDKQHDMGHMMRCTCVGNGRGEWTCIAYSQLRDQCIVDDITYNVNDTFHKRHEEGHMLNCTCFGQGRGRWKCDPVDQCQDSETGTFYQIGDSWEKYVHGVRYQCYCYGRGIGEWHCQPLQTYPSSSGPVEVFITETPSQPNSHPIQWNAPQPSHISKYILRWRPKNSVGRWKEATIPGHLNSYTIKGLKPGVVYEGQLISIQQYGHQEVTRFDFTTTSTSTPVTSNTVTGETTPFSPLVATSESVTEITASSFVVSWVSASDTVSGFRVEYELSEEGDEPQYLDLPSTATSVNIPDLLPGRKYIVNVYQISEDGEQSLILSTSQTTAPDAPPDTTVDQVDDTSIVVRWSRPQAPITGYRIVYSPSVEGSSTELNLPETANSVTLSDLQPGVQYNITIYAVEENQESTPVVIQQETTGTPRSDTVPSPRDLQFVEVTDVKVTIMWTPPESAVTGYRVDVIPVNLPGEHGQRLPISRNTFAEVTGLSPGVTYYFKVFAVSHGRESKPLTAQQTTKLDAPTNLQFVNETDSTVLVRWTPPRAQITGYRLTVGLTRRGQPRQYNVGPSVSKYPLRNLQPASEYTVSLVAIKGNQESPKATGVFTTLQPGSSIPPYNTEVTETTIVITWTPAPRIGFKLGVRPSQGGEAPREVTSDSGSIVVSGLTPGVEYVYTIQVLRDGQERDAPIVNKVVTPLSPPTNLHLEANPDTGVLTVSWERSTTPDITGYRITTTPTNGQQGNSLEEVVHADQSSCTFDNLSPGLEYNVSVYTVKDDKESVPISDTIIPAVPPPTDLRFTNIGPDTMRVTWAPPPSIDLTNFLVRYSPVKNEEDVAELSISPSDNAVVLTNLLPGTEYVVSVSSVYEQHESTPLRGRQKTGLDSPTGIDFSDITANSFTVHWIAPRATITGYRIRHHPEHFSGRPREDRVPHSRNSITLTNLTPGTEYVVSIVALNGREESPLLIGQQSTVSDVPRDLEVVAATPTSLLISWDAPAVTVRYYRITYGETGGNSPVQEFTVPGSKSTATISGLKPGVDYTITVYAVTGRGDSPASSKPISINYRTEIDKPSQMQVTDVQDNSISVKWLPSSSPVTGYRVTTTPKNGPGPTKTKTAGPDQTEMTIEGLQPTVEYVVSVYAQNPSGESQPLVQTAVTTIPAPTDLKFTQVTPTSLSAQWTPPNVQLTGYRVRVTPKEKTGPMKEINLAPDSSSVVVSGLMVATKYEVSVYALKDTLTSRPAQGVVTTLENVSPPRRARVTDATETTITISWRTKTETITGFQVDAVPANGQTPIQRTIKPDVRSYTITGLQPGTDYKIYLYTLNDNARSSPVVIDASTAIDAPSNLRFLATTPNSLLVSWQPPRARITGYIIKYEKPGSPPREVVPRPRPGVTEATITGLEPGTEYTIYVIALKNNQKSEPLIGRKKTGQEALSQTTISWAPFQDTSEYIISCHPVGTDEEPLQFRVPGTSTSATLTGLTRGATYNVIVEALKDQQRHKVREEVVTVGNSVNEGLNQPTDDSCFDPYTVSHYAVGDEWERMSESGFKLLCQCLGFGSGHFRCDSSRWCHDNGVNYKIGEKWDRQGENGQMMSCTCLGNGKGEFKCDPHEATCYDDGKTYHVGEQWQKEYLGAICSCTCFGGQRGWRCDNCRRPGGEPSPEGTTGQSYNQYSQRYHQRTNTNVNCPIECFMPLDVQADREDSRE",
  "experiment": "ELISA; as the adhesion assay on coated substrate, over a range of protein concentrations; KD estimated with the xy analysis subprogram of GraphPad Prism v. 5",
  "data": [
    {"substance": "MBP-OmpL1 (natural protein)", "values": [
      {"measurement": "Kd", "value": 870, "unit": "nM"}
    ]}
  ]
}
